In patent US20160289321A1 (SHANGHAI HENGRUI PHARMACEUTICAL, published 2016):
Changes are numbered by the printed parent chain. Where two headings read alike, the source gives them in different places.

B1: IL17-mAb049 (antibody, V domains shown)
VH: HVQLQQSGADLVRPGASVTLSCKASGYIFTDYEVHWVKQTPVHGLEWIGVIDPGTGGVAYNQKFEGKATLTADDSSNTAYMELRSLTSEDSAVYYCTRYSLFYGSSPYAMDYWGQGTSVTVSS
VL: QIVLTQSPAIMSASPGEKVTITCSASSSVNYMHWFQQKPGTSPKLWIYRTSNLASGVPVRFSGSGSGTSYSLTISRMEAEDAATYYCQQRSSYPWTFGGGTNLEIK
notes: Murine monoclonal antibody from a hybridoma; also called murine IL-17A mouse antibody mAb049
B2: Hu049-18 (antibody, V domains shown)
VH: EVQLVQSGAEVKKPGASVKVSCKASGYTFTDYEVHWVRQAPGQGLEWMGVIDPGTGGVAYNQKFEGRVTMTADTSTSTAYMELRSLRSDDTAVYYCTRYSLFYGSSPYAMDYWGQGTLVTVSS
VL: EIVLTQSPDFQSVTPKEKVTITCSASSSVNYMHWFQQKPDQSPKLWIYRTSNLASGVPSRFSGSGSGTDYTLTINSLEAEDAATYYCQQRSSYPWTFGQGTKLEIKR
notes: Humanized mAb049
B3: Hu049-17 (antibody, V domains shown)
VH: B2 VH with A72T
VL: B2 VL
notes: Humanized mAb049
B4: Hu049-20 (antibody, V domains shown)
VH: B2 VH with M48I, V68A, M70L, T74D, S77N
VL: B2 VL
B5: Hu049-19 (antibody, V domains shown)
VH: B2 VH with M48I
VL: B2 VL
notes: Humanized mAb049

Tests used:
[1] = target: T1, Recombinant human IL-17A (rhIL-17A), R&D Systems Cat.No.317-ILB (human, UniProt Q16552 20-155, limits assumed); assay: cell-based or functional assay
[2] = target: T2, Recombinant human IL-17A/F (rhIL-17A/F), R&D System Cat No.5194-IL/CF (human, UniProt Q16552 20-155; Q96PD4 31-163, limits assumed); assay: cell-based or functional assay
[3] = target: T3, Human IL-17A (hIL-17A), expressed in HEK293E (human, UniProt Q16552 24-155); assay: SPR (Biacore X100), antibody captured on the chip, IL-17A as analyte
Method: (§1) 2. Binding kinetics Test: FC1 (Flow cell 1) was used as the reference channel, FC2 (Flow cell 2) was used as the sample channel, and murine or humanized control antibody or the antibody of the present invention was captured in the FC2 channel at 300RU, followed by the injection of different concentrations of IL-17 (including hIL-17A, MuIL-17, Rat IL-17). Cycle conditions were: injecting analytes into all FC channels at 30 μl/min for 3min, dissociation for 20 min, injecting 10 mM Glycine, pH 1.5, for 60 s (at rate of 10 μl/min) for surface regeneration. The difference between the signal with captured antibody and the signal without captured antibody was calculated using Biacore X100 evaluation software ver 2.0 (Biacore), and the running buffer was 10 mM Hepes, […], 3 mM EDTA, 0.05% Tween-20.
1. Hybridomas obtained in Example 1 were tested using the above method, and the results were as follows: […]

[4] = target: T3, Human IL-17A (hIL-17A), expressed in …; assay: indirect ELISA, hIL-17A or hIL-17A/F on streptavidin plates, OD450 against Lilly mAb and Novartis mAb
Method: 6. The positive controls, Lilly mAb and Novartis mAb, or murine mAbs antibodies of the present invention were titrated at a 1:5 dilution, with an initial concentration of 1 μg/ml. 100 μl of diluted positive control or murine antibody of the present invention were added to each well, and the plates were thermostatically incubated at 37° C. for 1 h. Each concentration was tested in duplicate;
10. The OD value at a wavelength of 450 nm was read on an ELISA microplate reader (Molecular Devices, Spectra Max).
11. The OD values of the murine mAb antibodies were compared to those of the positive controls. Monoclonal cell lines with a ratio greater than 1, including IL17-mAb049, were screened.

biotin-labeled IL-17A = target: T4, biotin-labeled IL-17A (human, UniProt Q16552 24-155, limits assumed, biotin-labeled (sites not given)); assay: receptor blocking ELISA (RBA): antibody titrated against biotin-labeled IL-17A binding to captured IL-17RA-Fc
T4 construct: also called huIL-17
Method: 6. The positive controls, Lilly mAb and Novartis mAb, or antibodies of the present invention were diluted at a 1:5 ratio, with an initial concentration of 40 μg/ml. mIgG was diluted using the same method. 50 μl of diluted positive control, murine antibody of the present invention, or mIgG were added to each well, and, 50 μof 0.2nM biotin-labeled IL-17A were added to the wells containing diluted positive control or the antibody of the present invention, mixed gently and the plates were thermostatically incubated at 37° C. for 1 h.
7. The plates were washed with PBST three times; 8. 100 μl of HRP-labeled streptavidin complex (1:5000) were added to each well, and the plates were thermostatically incubated at 37° C. for 1 h;

[5] = target: T1, Recombinant human IL-17A (rhIL-17A), …; assay: cell-based or functional assay; remark: listed apart in the source
[6] = target: T2, Recombinant human IL-17A/F …; assay: cell-based or functional assay; remark: listed apart in the source
Cyno IL-17A = Cyno IL-17A (cynomolgus, UniProt A0A2K5TTB0 24-155); assay: cell-based or functional assay
[7] = target: T3, Human IL-17A (hIL-17A), expressed in …; assay: SPR (Biacore X100), antibody captured on the chip, IL-17A as analyte; remark: listed apart in the source
Method: as §1
(§2) 2. Humanized IL-17 antibodies obtained from Example 2 were tested using the above method, and the results were as follows: […]

Rat IL-17A = target: T5, Rat IL-17A (rat, UniProt Q61453 18-150, limits assumed); assay: SPR (Biacore X100), antibody captured on the chip, rat IL-17 as analyte
T5 sequence (looked up): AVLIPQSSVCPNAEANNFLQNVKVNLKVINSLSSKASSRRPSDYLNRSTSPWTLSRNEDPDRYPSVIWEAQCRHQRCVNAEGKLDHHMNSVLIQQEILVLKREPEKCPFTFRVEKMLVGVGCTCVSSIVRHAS
Method: as §1, §2

Mouse IL-17A (Mu IL-17A) = target: T6, Mouse IL-17A (Mu IL-17A) (mouse, UniProt Q62386 26-158); assay: SPR (Biacore X100), antibody captured on the chip, mouse IL-17 as analyte
T6 sequence (looked up): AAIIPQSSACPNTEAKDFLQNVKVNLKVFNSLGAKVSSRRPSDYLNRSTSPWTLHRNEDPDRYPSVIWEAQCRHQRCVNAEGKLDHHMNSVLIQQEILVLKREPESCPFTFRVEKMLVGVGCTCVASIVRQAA
Method: as §1, §2

Cyno IL-17A, sequence (A0A2K5TTB0 entry or part of it): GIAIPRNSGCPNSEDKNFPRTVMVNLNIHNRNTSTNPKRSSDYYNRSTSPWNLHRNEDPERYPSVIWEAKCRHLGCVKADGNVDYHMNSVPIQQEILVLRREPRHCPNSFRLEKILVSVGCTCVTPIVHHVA
T2 sequence (Q16552 20-155 limits assumed, chain 1 of 2): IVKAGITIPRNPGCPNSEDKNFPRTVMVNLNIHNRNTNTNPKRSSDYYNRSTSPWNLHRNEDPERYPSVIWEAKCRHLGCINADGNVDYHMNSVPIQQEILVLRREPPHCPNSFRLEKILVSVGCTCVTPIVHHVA
T2 sequence (Q96PD4 31-163 limits assumed, chain 2 of 2): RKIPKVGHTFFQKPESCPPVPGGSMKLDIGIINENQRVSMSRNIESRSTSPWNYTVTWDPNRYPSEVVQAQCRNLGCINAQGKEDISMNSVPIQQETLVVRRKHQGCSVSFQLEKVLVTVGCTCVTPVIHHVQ
T1 sequence (Q16552 20-155 limits assumed): as the sequence (Q16552 20-155 limits assumed, chain 1 of 2) above
T3 sequence (Q16552 24-155 limits assumed): as the sequence (A0A2K5TTB0 entry or part of it) above, with A3T, S8P, S34N, V77I, K78N, R104P counted along it
T4 sequence (Q16552 24-155 limits assumed): as the sequence (A0A2K5TTB0 entry or part of it) above, with A3T, S8P, S34N, V77I, K78N, R104P counted along it

| Binder | huIL-17 Bioassay (IC50, nM) [1] [nM] | huIL-17A/F Bioassay (IC50, nM) [2] [nM] | Kd [3] [nM] | ratio of OD value to that of the positive controls [4] | IC50 (biotin-labeled IL-17A) [nM] | huIL-17 Bioassay (IC50, nM) [5] [nM] | huIL-17A/F Bioassay (IC50, nM) [6] [nM] | Cyno IL-17A (bioassay IC50) (Cyno IL-17A) [nM] | Kd [7] [nM] | Kd (Rat IL-17A) [nM] | Kd (Mouse IL-17A (Mu IL-17A)) [nM] |
| --- | --- | --- | --- | --- | --- | --- | --- | --- | --- | --- | --- |
| B1 | 0.04 | 0.46 | 0.0262 | 1 | 0.07 |  |  |  |  |  |  |
| B2 |  |  |  |  |  | 0.04 | 0.684 | 0.033 | < 0.001 | 0.477 | 0.0681 |
| B3 |  |  |  |  |  | 0.061 | 0.406 | 0.03 | < 0.001 | 1.06 | 0.137 |
| B4 |  |  |  |  |  | 0.065 | 0.674 | 0.028 |  |  |  |
| B5 |  |  |  |  |  | 0.066 | 0.411 | 0.039 | 0.00268 | 0.06 | 0.0771 |
